Laboratory results as given in the DeepSol protein solubility set.

Experiment: soluble on expression in E. coli; label from the status in PepcDB or PDB records

Soluble on expression in E. coli, soluble:
MFRPASIAVTAALCACALPALASETLNSRTDVLAALEAGYDVSVSTDLSRCTPEEGTPVSRTRGGRHIDAYRITEDGNVAFSGAHFTVANDGKPIQQFMRYQLRPDGSVRFTTYMYDLPGLQQRGPVLAYQCAFNEGARFHADLEHHHHHH
MAHHHHHHMEVREGEPPQSWTYKAVCMTLEKDDGVEQSGAPRLRLMVLTSEKGWPYSWRWKENKSTRDCHVNCEVDRVWRTVKGDLTKWFSRRAKNKLSPRRRLLVGTPWIGNSMAADSYLLYQLLHGDAEKLQVAVYSFGSQSFLFDKTTQAVREYVDTTKSKRVFFFWQL
MREVEPLAERLRPRSLDEVLGQPHLTGPQGLLRRMLEAGRLSSMVLFGPPGTGKTTLARLLAEGVGRPFLRLSAVEAGLKEVRQAVEEARAKGGLVLFLDEVHRFNKAQQDALLPHLESGLLTLIGATAENPAFALVPALRSRLRFFPLRPLEEADLLALLRRALEDPRGLPGTPYEEEALRVLAQAAGGDARFALNTLELAASFGRVDLKSVREALGAERFGMDREGDRFYDLVSALHKSLRGSHVDAALYYLARLLQGGADPRYLARRLIRVAVEDVGLADPLALRLAVAAKEAYEALGSPEGELALVEAAVYLALAPKSNSLYAAWKKAQEAAKAHPEAEVPLNLRNAPTGLARALGHGEGYAYYHEDKEGSFAQRYLPEGLEGLTLFEATGEGWEERVRERLKALRERFQTARRRRG
MSLNKVSLAQIAKAAGVSKMTASRVLRDEGGFSESTRARVMAEIDRLGYVPNRLATVFAGDQRSTFVGVSIPELGNEIFAQVLEGIDRKLGAFGHQTVLGMTEHALEQEEKWLETVLSWQPAGLIVTGRSHTPKSIQLLSGAGIPLVEIWDFNSSPLDMSVGLNHFDSGYSMGRYLTGLGYRQFGYVGTSHDTANAASARLAGYAKVIGDSGGSLKKQLLLKDAPGFYTGYYGTEQLLAANSDVEVIYYQNDNMAVGGLNYCQKRGLSIPGDIGIAGWGDLPIASILPYRLTSTAVPHLRIGMIAAEMVLSQINGEARRRSQDVGFTLIPGSTVRSQLEEGHHHHHH
MAHHHHHHMLRFRVRLPKGKEPVSMDLDGTTTWGSFVQSISSLTDVPCSQLRILSGFPPRPVEVGDGAASIASVLPGGGNVIVQVGEADVVKGKTEGRYVPPVDGKWHFVRRVCPSDNSCLFHAAAYVLRNKSRVDGPSLRKECADIVQAYPNVFNEKTILDRPNREYVDFIRNPNAWGGAIELMVLSFLTQTEIVALDLTSSNVLHFGEDNNYTVRAYVVFNGQHYDAIAMNPMFNSPQESEDQVLFSSTDAEVLNRARRFVADEAKKLRLR
GAMGMNGIDDLLNINDRIKQVQNERNELASKLQNLKQSLASNDTGGGSGGGSDSSDLLQREAILANELNILDNLKTFLNLIKEVKTNLNILELENCYYSLQSLRKKMRNNAAYLKQSFNFQQSISTYVDTLHLELVSTLYKILTNGFWKITENSIQFTPTVEWGKDKVHIEYDTFMDFVAQQYFPKGSLDNQAWFILDMTSADSQEQVRAKLNTIMKEYMNLSRIVSMIKNSIFISGKEISYENEKNILVFSKSSSHGQHCVSTVLTSFEAVCDFMLDGLAFRDRKTLSYELGPLFNTEFTKFVKNNASIILESLDSPLKNLVSVINNKLTRLVAKSEVTNWTHSGKEIQDLLMN
MSLTNEFEILKPGKLLLASANLLDPNFKRTVLLMCEHNEEGSIGFILNKPMEFKVCEAISGFDEIDEPLHMGGPVQVDTVHVLHTRGDVIDGAVEVIPGLFWGGDKEQLSYLINTGVIKASEVRFFLGYAGWSAGQLEAEFEEGSWYTADASSEQVFTDEYERMWSRSVRSKGGEYCYVANSPELPGMNEGHHHHHH
MAQLFFKYGAMNSGKTIEILKVAHNYEEQDKPVVLMTSGLDTRDGVGKVSSRIGLRRDAIPIFEETNVFDLINDLSYKPFCVLVDECQFLNKHHVIEFARIVDELDIPVMAFGLKNDFRNELFEGSKYLLLYADKLEELKTICWFCHKKATMNLHYIDGNPVYEGDQVQIGGNEAYYPVCRKHYFHPKTVNEEQLEHHHHHH
MSLNERVMMINANGVPIALYNRGHLGSGHFGAVIKASLDDGTLYAAKVPYSQIVPNADATSAELEAEISSARAELVKTIRQELDVRDKLVAKGLTLTETAEQYGLPLCQMTLTLPENKATVVRRGSRLVVVSKEVMLLPLIDGSPSNSLVQSQPPFLFQRAVAREAIIALAKLHELGFAHGDVKLNNMMIDVHGFGHMLDMGSVRPVDSCVSEEDKYYLRLWAPELAKSQHTSQQTCLKRGALDVWALGLAIFEFVCFNRLPYSLSNLPSSLWSRVEHLSRLRLSDFSAKDCNESDPAVMGIVAQFLNPNPEERPELPKFVSSYTFFRQAPGVTSHLTRIPTTELSSHREGHHHHHH

Soluble on expression in E. coli, not soluble:
MDMNEEYGLTPYETREILFYKTDNGEVRVEILLYQENLWLTQAKMAELFEVQKAAISKHLKNIFTSGELQEEAVVSKMETTAADGKRYNTSYYNLDAIIAVGYRVNSKKATMFRIWANRVLKEFIIKGYVMDDARLREPENLFGKDYFEEQLERIRDIRSSERRFYQKITDIYSQCSADYDVNSPVTKEFFATVQNKLHYAVTHHTAAEIVYGRADSTKPNMGLTTWKNAPQGRIRKSDVSIAKNYLNEEEMINLNEIVTMYLDYAERQARRGNIMYMQDWVNRLDAFLQFNEEDILHDKGKVTAAIAKAFAESEFEKFRVLQDRTYQSDFDRLVANIEENSKQTK
MEAVDLAFANYAERFARSCKGDGWRRLVERAIRLYLTPVLGKKALPAINRTDVVSVFDNMPADQVANRRNVFAVLRRLFRWAVSRGDLDRSPMEGMLEHHHHHH
MGSDKIHHHHHHMVRDIDKTTSLHLNNEAQFLCFRLDAEKDAQLYGMNIFKIREIIHYDGEVTEILGGSDGVMLGFLSVRGESIPLVDVKRWLHYNANDPSRDLKECSVKDDHNLVIVCHFSNHSIALKVLKIERIIHKNWTEISAGDKQGINEEGKLSAITRFDEERVVQILDVEKMISDVFPSLKDLDDLTLRCIEAIQSQKLILIAEDSLSALKTLEKIVQTLELRYLAFPNGRELLDYLYEKEHYQQVGVVITDLEMPNISGFEVLKTIKADHRTEHLPVIINSSMSSDSNRQLAQSLEADGFVVKSNILEIHEMLKKTLS
SEASFVQTTMALGLPSKKASSRNVIVERRNLITVCRFSVKTLLEKYTAEPIDDSSEEFVNFAAILEQILSHRFKACAPAGPASWFSSDGQRGFWDYIRLACSKVPNNCVSSIENMENISTARAKGRAWIRVALMEKRMSEYITTALRDNRTTRRFYDSGAIMLREEATVLTGMLIGLSAIDFSFCLKGEVLDGKTPVVIDYTPYLKFTQSYDYLTDEEERHSAESSTSEDNSPEHPYLPLVTDEDSWYNKWHKMEQKFRIVYAQKGYLEELVRLRESQLKDLEAENRRLQLQLEEAAAQNQREKRELEGVILELQEQLPDPPPPPRTGLIPGDHAPLAQGSKELTTSLVNQWPSLSTLHRPEGASNSKLYRRHSFMSTEPLSAEASLSSDSQRLGEAKRDEEPWGPIGSSEPN
PFKESQARGLLQDNMANSYNGGDFEDGLLNLSKEVFPTDKYLYQDGQFLDKKTINAYLNPKYTKREIDKMSEKDKKDKKANENLGLNPSHEGETNPEKIAEKSPAYLSNILEQDFYGGGDTKGKNIKGMTIGLAMNSVYYYKKEKDGPTFSKKLDDSEVKKQGKQMASEILSRLRENDDLKDIPIHFAIYKQSSEDSITPGEFITQATAEKSQTKLNEWHNINEKSALLPSSTAADYDENLNNNFKQFNDNLQSYFSNFTQAVGKVKFVDKKPQRLVVDLPIDYYGQAETIGITQYVTEQANKYFDKIDNYEIRIKDGNQPRALISKTKDDKEPQV
MGYIEDMRNLVGNHPLILIGSHAIILNEKDEVLLQLRTDFNRWGIIGGALEYNETLEDALKREVFEETGLIIKNPELFRTYSGPDFFQIYPNGDQVHGVLVVYICREFHGELVCDHTESKELRFFSLDELPNNLPPVIEKIITDYLKK
MKMTLPFKPHVLALICSAGLCAASAGLYIKSRTVEAPVETQSTQLAVSDAAAVTLPATVSAPPVTPAVVKSAFSTAQIDQWVAPVALYPDALLSQVLMASTYPTNVAQAVQWSHDNPLKQGDAAIQAVSDQPWDASVKSLVAFPQLMALMGENPQWVQNLGDAFLAQPQDVMDSVQRLRQLAQQTGSLKSSTEQKVITTTKKTVPVTQTVTAPVIPSNTVSTANPVITEPATTVISIEPGNPDVVYIPNYNPTVVYGNWANTAYPPVYLPPPAGEPFVDSFVRGFGYSMGVATTYALFSSIDWDDDDHDHHHHDDDNYHHHDGGHRDGNGWQHNGDNINIDVNNFNRITGEHLTDKNMAWRHNPNYRNGVPYHDQDMAKRFHQTDVNGGMSATQLPAPTRDSQRQAAASQFQQRTHAAPVITRDTQRQAAAQRFNEAEHYGSYDDFRDFSRRQPLTQQQKDAARQRYQSASPEQRQAVHEKMQTNPQNQQRREAARERIQPASPEQRQAVREKMQTNPQIQQRRDAARERIQSASPEQRQVFKEKVQQRPLNQQQRDNARQRVQSASPEQRQVFREKVQESRPQRLNDSNHTARLNNEQRSAVRERLSERGARRLER
MLMTIDISEESLAKESADLLKILLKDRTTKKSIVWATHSYELLGKGFAPSDRINPSKVTGNFANLIQPRSEKSKYEQKDRTKIRAEVFTPTWLVAKQNGYVESKLGSLSLEEYVDLRWLEVTCGEAPYMVTRYDTVTGEEIPLSERVGFVDRKLQRISREVSDEVTFYKLVKDAYHASYGYEYQGDSLLLARENLLATFEDYYLAKTGNQPTLEQKKEIATIISYNVFQMDGLKKSSPYSAKQKQSQQLSLFADELEVQEVEESKTHIKDWKKNRMIGFERLSSEESEMKFDVVIGNPPYQETGEARDEPIYHYFIDEAYKIADKSILITPARFLFKAGQTPKNWMEKMLEDKHLKVQFYELKSGKVFTGTDIKGGVAITYRDVDKDLGPIGVFTIFETLNGIVKKIEKHPEFETFSDLVYPQGIYRFSNKLFSDYPNAEKLQGKGTKNKIVSKSLTQLDFVFKNNEEKDHVALLGRIGSERVYRYINKKYLDLPETFENYNVFVPEANGSGALGEVLSTPLIGEPLIGHTDTFLSIGNFKTKFEADACIKFIKTKFARVLLGVLKVTQHNSRKTWYYVPLQDFTVNSDIDWTQSVTDIDRQLDQKYDLSPEEIAFIENHVREMD
MERYVWARFFWQQARDKRGVPRRHVCDTARNNNRRPETGTAFTALCSTTVTPHPDDDDTVKGTCFAPACQVCTILLARAMNWNDGELGQLVQTFHWTHADIALLATALDITRSEARRLLTAWTDAAK
MQRIELLPLVLDNQTFFQNCPDIIPRIIPFSPCLDGSEVNFICGPLHTGKTSFLRQVAGSLQGLKVYINFEDSRFRDLKPETLQEIKEIAAEYCIKGPEDEEGLAGKDIDDKERPEVPVSYFLDEIHYLPGWGDRVYSLQNDGARVFVTSSSAGIISKEISSRFADGIKIIRLLPFSFKEYLTLKGLRVPRPNFLTPSRCDEMLCLFLQYFENGGFPEIIKSGDFRLSRKYFEETLQKEIIERHTIQDPEGLKKLAVFLISNMASEYSIDTLKRAGGIKDEATVRNYLDYLEEAFLLYRVPMFRHKSEKPDYGKEGENENERESNIPCKVYAGDTGFFKSVFPRYPDSLGLRFENLVFLELLRKGKQVYYFHNTRECDFLIAEKESQKVTAAVQVCLCFGGTAVREREVLGLMEAMEEFGLNEGLILTMDDEEVMEIEGKDGENKRIIINSVWKWMLELEHHHHHH
